Data published in the RNAGym collection of RNA variant scans (doi:10.7554/elife.80360).

B1: HDV Ribozyme (parent)
chain: GGCCGGCAUGGUCCCAGCCUCCUCGCUGGCGCCGGCUGGGCAACAUUCCGAGGGGACCGUCCCCUCGGUAAUGGCGAAUGGGACCCA

Variants of: B1
Assay: self-cleavage, relative activity (ratio to wild type); higher = more cleavage; co-transcriptional

Point of comparison: GGCCGGCAUGGUCCCAGCCUCCUCGCAGGCGCCGGCUGGGCAACAUUCAGAGGGGACCGUCCCCUCGGUAAUGGCGAAUGGGACCCA, self-cleavage 0.831. Against it:
- GGCCGGCAUGGUCCCAGCCUCCUCGCAGGCGCCGGCUUGGCAACAUUCCGAGGGGACCGUCCCCUCGGUAAUGGCGAAUGGGACCCA — lower, 0.0426
- GGCCGGCAUGGUCCCAGCCUCCUCGCAGGCGCCGGCUAGGCAACAUUCCGAGGGGACCGUCCCCUCGGUAAUGGCGAAUGGGACCCA — lower, 0
- GGCCGGCAUGGUCCCAGCCUCCUCGCAGGCGCCGGCUGGGCAGCAUUCCGAGGGGACCGUCCCCUCGGUAAUGGCGAAUGGGACCCA — lower, 0.237
- GGCCGGCAUGGUCCCAGCCUCCUCGCAGGCCCCGGCUGGGCAACAUUCCGAGGGGACCGUCCCCUCGGUAAUGGCGAAUGGGACCCA — lower, 0.378
- GGCCGGCAUGGUCCCAGCCUCCUCGCAGGCACCGGCUGGGCAACAUUCCGAGGGGACCGUCCCCUCGGUAAUGGCGAAUGGGACCCA — lower, 0.743
- GGCCGGCAUGGUCCCAGCCUCCUCGCAGGCGCCGGCUGGGCAACAUUCCGAGGGGACCGUCCCCUGGGUAAUGGCGAAUGGGACCCA — lower, 0.755
- GGCCGGCAUGGUCCCAGCCUCCUCGCAGGCGCCGGCUGGGCAACAUUCCGAGGGGACCGUCCCCUAGGUAAUGGCGAAUGGGACCCA — higher, 0.886
- GGCCGGCAUGGUCCCAGCCUCCUCGCAGGCGCCGGCUGGGCAACAUUCCGAGGGGACAGUCCCCUCGGUAAUGGCGAAUGGGACCCA — higher, 0.997
- GGCCGGCAUGGUCCCAGCCUCCUCGCAGGCGCCGGCUGGGCAACAUUCCGAGGGGACUGUCCCCUCGGUAAUGGCGAAUGGGACCCA — higher, 0.937
- GGCCGGCAUGGUCCCAGCCUCCUCGCAGGCGCCGGCUGGGCAACAUUCCGAGGGGACCGUACCCUCGGUAAUGGCGAAUGGGACCCA — higher, 0.906
- GGCCGGCAUGGUCCCAGCCUCCUCGUUGGCGCCGGCUGGGCAACAUUCCGAGGGGACCGUCCCCUCGGUAAUGGCGAAUGGUACCCA — lower, 0.769
- GGCCGGCAUGGUCCCAGCCUCCUCGUUGGCGCCGGCUGGGCAACAUACCGAGGGGACCGUCCCCUCGGUAAUGGCGAAUGGGACCCA — higher, 1.16
- GGCCGGCAUGGUCCCAGCCUCCUCGCAGGCGCCGGCUGGGCAACAUUCCGAGGGGACCGUCCUCUCGGUAAUGGCGAAUGGGACCCA — lower, 0.813
- GGCCGGCAUGGUCCCAGCCUCCUCGCAGGCGCCGGCUGGGCAACAUUCCGAGGGGACCGUCCCCUCGGUUAUGGCGAAUGGGACCCA — higher, 0.985
- GGCCGGCAUGGUCCCAGCCUCCUCGCAGGCGCCGGCUGGGCAACAUUCCGAGGGGACCGUCCCCUCGGUAAUGGCGUAUGGGACCCA — lower, 0.332
- GGCCGGCAUGGUCCCAGCCUCCUCGCAGGCGCCGGCUGGGCAACAUUCCGAGGGGACCGUCCCCUCGGUAAUGGCGCAUGGGACCCA — lower, 0
- GGCCGGCAUGGUCCCAGCCUCCUCGCAGCCGCCGGCUGGGCAACAUUCCGAGGGGACCGUCCCCUCGGUAAUGGCGAAUGGGACCCA — lower, 0.158
- GGCCGGCAUGGUCCCAGCCUCCUCGCAGUCGCCGGCUGGGCAACAUUCCGAGGGGACCGUCCCCUCGGUAAUGGCGAAUGGGACCCA — lower, 0
- GGCCGGCAUGGUCCCAGCCUCCUCGCAGGCGCCGGCUGGGCAACAUUCCGAGGGGCCCGUCCCCUCGGUAAUGGCGAAUGGGACCCA — higher, 0.914
- GGCCGGCAUGGUCCCAGCCUCCUCGCAGGCGCCGGCUGGGCAACAUUCCGAGGGGUCCGUCCCCUCGGUAAUGGCGAAUGGGACCCA — higher, 0.923
- GGCCGGCAUGGUCCCAGCCUCCUCGUUGGCGCCGGCUGGGCAACAUUCCGAGGGGACCGUCCCCUCGGUAAAGGCGAAUGGGACCCA — lower, 0.731
- GGCCGGCAUGGUCCCAGCCUCCUCGUUGGCGCCGGCUGGGCAACAUUCCGAGGGGACCGUCCCCUCGGUAACGGCGAAUGGGACCCA — higher, 0.906
- GGCCGGCAUGGUCCCAGCCUCCUCGCAGGCGCCGGCUGGGCAACAUUCCGAGGGGAGCGUCCCCUCGGUAAUGGCGAAUGGGACCCA — lower, 0.8
- GGCCGGCAUGGUCCCAGCCUCCUCGCAGGCGCCGGCUGGGCAACAUUCCGAGGGGAUCGUCCCCUCGGUAAUGGCGAAUGGGACCCA — higher, 1.01
- GGCCGGCAUGGUCCCAGCCUCCUCGCAGGCGCCGGCUGAGCAACAUUCCGAGGGGACCGUCCCCUCGGUAAUGGCGAAUGGGACCCA — lower, 0.356
- GGCCGGCAUGGUCCCAGCCUCCUCGCAGGCGCCGGCUGCGCAACAUUCCGAGGGGACCGUCCCCUCGGUAAUGGCGAAUGGGACCCA — lower, 0.0504
- GGCCGGCAUGGUCCCAGCCUCCUCGCAGGCGCCGGCUGGGCAACAUUCCGAGGGGACCGUCCCCUCGGUAAUGGCGAAUGGGACCCC — higher, 0.88
- GGCCGGCAUGGUCCCAGCCUCCUCGCAGGCGCCUGCUGGGCAACAUUCCGAGGGGACCGUCCCCUCGGUAAUGGCGAAUGGGACCCA — lower, 0.272
- GGCCGGCAUGGUCCCAGCCUCCUCGUUGGCGCCGGCAGGGCAACAUUCCGAGGGGACCGUCCCCUCGGUAAUGGCGAAUGGGACCCA — lower, 0.462
- GGCCGGCAUGGUCCCAGCCUCCUCGCAGGCGCCGGCUGGGCUACAUUCCGAGGGGACCGUCCCCUCGGUAAUGGCGAAUGGGACCCA — lower, 0
- GGCCGGCAUGGUCCCAGCCUCCUCGCAGGCGCCGGCUGGGCCACAUUCCGAGGGGACCGUCCCCUCGGUAAUGGCGAAUGGGACCCA — lower, 0.0831
- GGCCGGCAUGGUCCCAGCCUCCUCGCAGGCGCCGGCUGGGCAACAUUCCGAGGGGACCGUCCCCUCGGUAAUGGCGAUUGGGACCCA — lower, 0.256
- GGCCGGCAUGGUCCCAGCCUCCUCGCAGGCGCCGGCUGGGAAACAUUCCGAGGGGACCGUCCCCUCGGUAAUGGCGAAUGGGACCCA — higher, 0.895
- GGCCGGCAUGGUCCCAGCCUCCUCGUUGGCGCCGGCUGGGCAACAUUCCGAGGGGACCGUCCCCACGGUAAUGGCGAAUGGGACCCA — lower, 0.769
- GGCCGGCAUGGUCCCAGCCUCCUCGCAGGCGCCGGCUGGGCAACAUUCCGAGGGGACCGUCCCCUCGGUAAUGGUGAAUGGGACCCA — lower, 0.0519
- GGCCGGCAUGGUCCCAGCCUCCUCGCAGGUGCCGGCUGGGCAACAUUCCGAGGGGACCGUCCCCUCGGUAAUGGCGAAUGGGACCCA — lower, 0.677
- GGCCGGCAUGGUCCCAGCCUCCUCGCAGGAGCCGGCUGGGCAACAUUCCGAGGGGACCGUCCCCUCGGUAAUGGCGAAUGGGACCCA — lower, 0.525
- GGCCGGCAUGGUCCCAGCCUCCUCGCAGGCGCCGGCUGGGCAACAUUCCGAGGGGACCGUCCCUUCGGUAAUGGCGAAUGGGACCCA — higher, 0.855
- GGCCGGCAUGGUCCCAGCCUCCUCGUUGGCGCCGGCUGGGCAACAUUCCGAGGGGACCGCCCCCUCGGUAAUGGCGAAUGGGACCCA — higher, 0.95
- GGCCGGCAUGGUCCCAGCCUCCUCGCACGCGCCGGCUGGGCAACAUUCCGAGGGGACCGUCCCCUCGGUAAUGGCGAAUGGGACCCA — lower, 0
- GGCCGGCAUGGUCCCAGCCUCCUCGCAAGCGCCGGCUGGGCAACAUUCCGAGGGGACCGUCCCCUCGGUAAUGGCGAAUGGGACCCA — lower, 0.0811
- GGCCGGCAUGGUCCCAGCCUCCUCGCAGGCGCCGGCUGGGCAACAUUCCGAGGGGACCGUCCCCUCGGUAAUGGCGAAUGGGCCCCA — lower, 0.739
- GGCCGGCAUGGUCCCAGCCUCCUCGCAGGCGCCGGCUGGGCAACAUUCCGAGGGGACCGUCCCCUCGGUAAUGGCGAAUGGGAUCCA — lower, 0.795
- GGCCGGCAUGGUCCCAGCCUCCUCGCAGGCGCCGGCUGGGCAACAUUCCGAGGGGACCGUCCCCUCGGUAAUGGCGAAUGGGAACCA — the same, 0.831
- GGCCGGCAUGGUCCCAGCCUCCUCGCAGGCGCCGGCUGGGCAACAUUCCGAGGGGACCGUCCCCUCGGUAAUGGCGAAUGGGACCGA — higher, 0.918
- GGCCGGCAUGGUCCCAGCCUCCUCGCAGGCGACGGCUGGGCAACAUUCCGAGGGGACCGUCCCCUCGGUAAUGGCGAAUGGGACCCA — lower, 0.0604
- GGCCGGCAUGGUCCCAGCCUCCUCGCAGGCGGCGGCUGGGCAACAUUCCGAGGGGACCGUCCCCUCGGUAAUGGCGAAUGGGACCCA — lower, 0.0545
- GGCCGGCAUGGUCCCAGCCUCCUCGCAGGCGUCGGCUGGGCAACAUUCCGAGGGGACCGUCCCCUCGGUAAUGGCGAAUGGGACCCA — higher, 0.923
- GGCCGGCAUGGUCCCAGCCUCCUCGCAGGCGCCGGUUGGGCAACAUUCCGAGGGGACCGUCCCCUCGGUAAUGGCGAAUGGGACCCA — lower, 0.538
- GGCCGGCAUGGUCCCAGCCUCCUCGCAGGCGCCGGAUGGGCAACAUUCCGAGGGGACCGUCCCCUCGGUAAUGGCGAAUGGGACCCA — lower, 0
- GGCCGGCAUGGUCCCAGCCUCCUCGUUGGCGCCGGCUGGGCAACAUUCCGAGGGGACCGUCCCCUCGGUAAUGGCGAACGGGACCCA — lower, 0.671
- GGCCGGCAUGGUCCCAGCCUCCUCGCAGGCGCCGGCUGGGCAACUUUCCGAGGGGACCGUCCCCUCGGUAAUGGCGAAUGGGACCCA — lower, 0.458
- GGCCGGCAUGGUCCCAGCCUCCUCGCAGGCGCCGGCUGGGCAACGUUCCGAGGGGACCGUCCCCUCGGUAAUGGCGAAUGGGACCCA — lower, 0.745
- GGCCGGCAUGGUCCCAGCCUCCUCGUUGGCGCCGGCUGGGCAACAUUCCGAGGGGACCGUCCCCUCGGCAAUGGCGAAUGGGACCCA — higher, 1.12
- GGCCGGCAUGGUCCCAGCCUCCUCGUUGGCGCCGGCUGGGCAACAUUCCGAGGGGACCGUCCCCUCGGAAAUGGCGAAUGGGACCCA — higher, 1.11
- GGCCGGCAUGGUCCCAGCCUCCUCGCAGGCGCCGUCUGGGCAACAUUCCGAGGGGACCGUCCCCUCGGUAAUGGCGAAUGGGACCCA — lower, 0.201
- GGCCGGCAUGGUCCCAGCCUCCUCGCAGGCGCCGCCUGGGCAACAUUCCGAGGGGACCGUCCCCUCGGUAAUGGCGAAUGGGACCCA — lower, 0.201
- GGCCGGCAUGGUCCCAGCCUCCUCGCAGGCGCCGACUGGGCAACAUUCCGAGGGGACCGUCCCCUCGGUAAUGGCGAAUGGGACCCA — lower, 0.369
- GGCCGGCAUGGUCCCAGCCUCCUCGCAGGCGCCGGCUGGGCAACAUUCCGAGGGGACCGUCCCCUCGGUACUGGCGAAUGGGACCCA — higher, 1.03
- GGCCGGCAUGGUCCCAGCCUCCUCGCAGGCGCCGGCUGGGCAACAUUCCGAGGGGACCGUCCCCUCGGUAGUGGCGAAUGGGACCCA — higher, 1.07
- GGCCGGCAUGGUCCCAGCCUCCUCGCAGGCGCCGGCUGGGCAACAUUCCGUGGGGACCGUCCCCUCGGUAAUGGCGAAUGGGACCCA — lower, 0.739
- GGCCGGCAUGGUCCCAGCCUCCUCGCAGGCGCCGGCUGGGCAACAUUGCGAGGGGACCGUCCCCUCGGUAAUGGCGAAUGGGACCCA — higher, 1.09
- GGCCGGCAUGGUCCCAGCCUCCUCGCAGGCGCCGGCUGGGCAACAUUACGAGGGGACCGUCCCCUCGGUAAUGGCGAAUGGGACCCA — the same, 0.831
